{"source": "patent US5763177", "about": "“Systematic evolution of ligands by exponential enrichment: photoselection of nucleic acid ligands and solution selex” (NeXstar Pharmaceuticals, Inc.)", "key": {"[1]": {"biological_target": "T1, R17 bacteriophage coat protein (Bacteriophage R17, UniProt P69170 P69170:1-129)", "T1 sequence (P69170 whole entry, one chain of several)": "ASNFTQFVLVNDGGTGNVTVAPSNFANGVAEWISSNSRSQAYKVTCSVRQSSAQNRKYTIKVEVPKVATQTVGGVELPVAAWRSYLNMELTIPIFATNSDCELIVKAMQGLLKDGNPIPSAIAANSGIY", "experiment": "photocrosslinking at 308 nm 5 min, 6.75 nM RNA, 120 nM protein", "conditions": "tags: purified from R17 phage propagated in E. coli S26; chain copies: 2; hairpin", "procedure": "RNA-7 (SEQ ID NO:4) (FIG. 11) was prepared using methodology as reported in Example 1 using a plasmid instead of a DNA template. The photocrosslinking was performed as described in Example 3. A 4 ml reaction mixture consisting of 6.75 nM RNA and 120 nM R17 coat protein was irradiated, 2 ml at a time, at 308 nm with unfocused emission from a XeCl excimer laser. The laser produced 50 mJ/pulse and was operated at 10 Hz. The reaction proceeded to near quantitative crosslinking, 85–90%, in 5 min of irradiation. After crosslinking, 1 ml of the total reaction mixture was removed; EDTA (80 mM), SDS (0.1%), and CaCl_2 (0.1 mM) were added; the free (unbound) RNA present was purified away; and the protein digested with Proteinase K at 60° C. for 30 min. The RNA bound to residual protein was ethanol precipitated to remove salts and spun to a pellet. The pellet was washed three times with 70% ethanol to remove any residual salts. A reverse transcription reaction was employed to make a complementary DNA copy of the RNA template. A 13-base […] was annealed to the RNA and the reverse transcription reaction was performed under the standard conditions of the manufacturer, Gibco (Gaithersburg, Md.), and was stopped after 1 hr. […] No stop in the 31 nucleotide region of the gel appeared; this established that the reverse transcriptase had read through the position of the crosslink. […]"}, "[2]": {"biological_target": "T1, R17 bacteriophage coat protein", "experiment": "filter; value only in figure; TMK buffer 10 mM Mg acetate, 80 mM KCl, 100 mM Tris pH 8.5, 4 C", "conditions": "tags: purified from R17 phage propagated in E. coli S26; chain copies: 2; label: 32P; hairpin", "procedure": "(§1) RNA-protein binding curves for hairpin variants RNA1 (SEQ ID NO:1), RNA-2 (SEQ ID NO:2) and RNA-3 (SEQ ID NO:3) to the bacteriophage R17 coat protein are shown in FIG. 7. The association constants between coat protein and the RNA hairpin variants were determined with a nitrocellulose filter retention assay described by Carey and co-workers (Carey et al. (1983) supra). A constant, low-concentration of ^32p-labeled RNA was mixed with a series of coat protein concentrations between 0.06 nM and 1 µM in 10 mM magnesium acetate, 80 mM KCL, 80 Ag/ml BSA, and 100 mM Tris-HCl (pH 8.5 at 4° C.) (TMK buffer). These were the same solution conditions used in the crosslinking experiments. After incubation at 4° C. for 45–60 min, the mixture was filtered through a nitrocellulose filter and the amount of complex retained on the filter determined by liquid scintillation counting."}, "HIV-2 Rev [3]": {"biological_target": "T2, HIV-2 Rev (Human immunodeficiency virus 2, UniProt P04615 P04615:1-100)", "T2 sequence": "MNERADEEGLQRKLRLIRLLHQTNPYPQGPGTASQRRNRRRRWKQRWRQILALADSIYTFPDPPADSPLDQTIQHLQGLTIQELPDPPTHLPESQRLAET", "experiment": "photocrosslinks (data not shown); no laser-independent crosslink (FIG. 19)", "conditions": "hairpin"}, "HIV-1 Rev [4]": {"biological_target": "T3, HIV-1 Rev (Human immunodeficiency virus 1, UniProt P04618 P04618:1-116)", "T3 sequence (P04618 whole entry, one chain of several)": "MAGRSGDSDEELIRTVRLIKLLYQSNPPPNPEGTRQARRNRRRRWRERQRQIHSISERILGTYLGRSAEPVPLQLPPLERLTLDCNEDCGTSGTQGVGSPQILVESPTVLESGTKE", "experiment": "monophasic; crosslinks with and without laser, also at 50 nM Rev in human nuclear extract (FIG. 20)", "conditions": "hairpin", "procedure": "To test for the ability of trunc24 (SEQ ID NO:59) to discriminate HIV-1 Rev in a complex mixture, trunc24 and 10 µg of human fibroblast nuclear extract together with decreasing amounts of HIV-1 Rev (FIG. 20). At 50 nM Rev and a 1:100 weight ratio of Rev to nuclear extract, it was possible to see a very significant crosslinked product between trunc24 and Rev."}, "[5]": {"biological_target": "T1, R17 bacteriophage coat protein", "experiment": "filter; value only in figure; TMK buffer 10 mM Mg acetate, 80 mM KCl, 100 mM Tris pH 8.5, 4 C; near-quantitative crosslinking at 325 nm", "conditions": "tags: purified from R17 phage propagated in E. coli S26; chain copies: 2; label: 32P; hairpin"}, "[6]": {"biological_target": "T1, R17 bacteriophage coat protein", "experiment": "filter; value only in figure; TMK buffer 10 mM Mg acetate, 80 mM KCl, 100 mM Tris pH 8.5, 4 C; crosslinks max about 40% at 308 nm", "conditions": "tags: purified from R17 phage propagated in E. coli S26; chain copies: 2; label: 32P; hairpin", "procedure": "as §1\n^32P-Labeled RNA sequences RNA-1 (SEQ ID NO:1) and RNA-2 (SEQ ID NO:2) (5 nM) and R17 coat protein (120 nM) were each incubated on ice in 100 mM Tris-HCl (pH 8.5 at 4° C.), 80 mM KCl, 10 mM magnesium acetate, […] of BSA for 15–25 min before irradiations. These are conditions under which the RNA is fully bound to the coat protein. […] Crosslinked RNA was separated from uncrosslinked RNA by PAGE, and the yields were determined by autoradiography."}, "HIV-1 Rev [7]": {"biological_target": "T3, HIV-1 Rev", "experiment": "monophasic; laser-dependent crosslinking at 325 nm", "conditions": "hairpin", "text": "(§2) The sequences are aligned for maximum homology to the 6a sequence (SEQ ID NO:5). Underlines represent potential base pairing as indicted by computer RNA folding algorithms. Dashed underlines represent the 6a ligand \"bubble\" motif. Sequences flanked by underline represent either loop or bulge regions. Dashes are placed to maximize alignment with 6a. * denotes that two isolates were obtained. +indicates laser independent crosslinking and—denotes the lack of laser independent crosslinking to HIV-1 Rev. […] FIGS. 18 and 19 show the sequence of Trunc2 (SEQ ID NO:58) and Trunc24 (SEQ ID NO:59) and the specificity results. 500 nM protein, 20 µg tRNA, and approximately 1 nM of kinased trunc2 RNA were incubated for 10 min. at 37° C. and irradiated for 4 min at 325 nm. t2-trunc2 RNA irradiated without added protein; t2Rev1/0'-trunc2 RNA, HIV-1 Rev protein and 0 min. of irradiation; t2/Rev1/4'-trunc2 RNA, HIV-1 Rev protein, adn 4 min. of irradiation; t2/Rev1/4'/ PK-trunc2 RNA, HIV1 Rev protein, 4 min. or irradiation, and proteinase K treated as in FIG. 1; t2/Rev2/4'-trunc2 RNA, HIV-2 Rev protein, and 4 min. of irradiation; t2/Tat/ 4'-trunc2 RNA, HIV-1 Tat protein, and 4 min. of irradiation. R-free RNA; XL-crosslinked nucleoprotein complex."}, "HIV-2 Rev [8]": {"biological_target": "T2, HIV-2 Rev", "experiment": "photocrosslinking 325 nm 4 min, 500 nM protein, 20 ug tRNA, 37 C", "conditions": "hairpin", "text": "as §2"}}, "data": [{"binder": "GAACAUGAGGAUUACCCAUGAAUUCGAGCUCGCCCGGGCUCUAG (ssRNA, 5-iodouracil in place of U)", "note": "[RNA-7]", "values": [{"measurement": "binding result", "setting": "[1]", "result": "binds"}]}, {"binder": "GGGAGCGAGCAAUAGCCGC (ssRNA)", "note": "[RNA-3]", "values": [{"measurement": "binding result", "setting": "[2]", "result": "binds"}]}, {"binder": "GGGGAUUAACAGGCACACCUGUUAACCCU (ssRNA, 5-iodouracil in place of all U)", "note": "[trunc24]", "values": [{"measurement": "binding result", "setting": "HIV-2 Rev [3]", "result": "binds"}, {"measurement": "Kd", "setting": "HIV-1 Rev [4]", "result": 20, "unit": "nM"}]}, {"binder": "GGGAGCGAGCAAUAGCCGC (ssRNA, 5-iodouracil in place of U)", "note": "[RNA-2]", "values": [{"measurement": "binding result", "setting": "[5]", "result": "binds"}]}, {"binder": "GGGAGCGAGCAAUAGCCGC (ssRNA, 5-bromouracil in place of U)", "note": "[RNA-1]", "values": [{"measurement": "binding result", "setting": "[6]", "result": "binds"}]}, {"binder": "GGGUGUAUGAAACACCACGUGUGUUUCCACUC (ssRNA, 5-iodouracil in place of all U)", "note": "[trunc2]", "values": [{"measurement": "Kd", "setting": "HIV-1 Rev [7]", "result": 0.5, "unit": "nM"}, {"measurement": "binding result", "setting": "HIV-2 Rev [8]", "result": "binds"}]}]}
